Measurements from the supplement of paper PMC7877785.
± gives the uncertainty stated by the source.

Assay: self-splicing fitness, log relative to wild type (ln ratio); higher = more splicing; Tetrahymena group I intron in knt gene, E. coli kanamycin selection, DiMSum; sequences stand for … in CUCUCU…GGAGGGAAAAGUUAUCAGGCAUGCACCUGGUAGCUAGUCUUUAAACCAAUAGAUUGCAUCGGUUUAAAAGGCAAGACCGUCAAAUUGCGGGAAAGGGGUCAACAGCCGUUCAGUACCAAGUCUCAGGGGAAACUUUGAGAUGGCCUUGCAAAGGGUAUGGUAAUAAGCUGACGGACAUGGUCCUAACCACGCAGCCAAGUCCUAAGUCAACAGAUCUUCUGUUGAUAUGGAUGCAGUUCACAGACUAAAUGUCGGUCGGGGAAGAUGUAUUCUUCUCAUAAGAUAUAGUCGGACCUCUCCUUAAUGGGAGCUAGCGGAUGAAGUGAUGCAACACUGGAGCCGCUGGGAACUAAUUUGUAUGCGAAAGUAUAUUGAUUAGUUUUGGAGUACUCGUGGUCG
Outline: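 Six replicate transformations of E. coli BL21(DE3) with a pET-22b(+) library were grown overnight at 37°C or 30°C. The library randomised all eight P1ex-region intron nucleotides, the intron lying in the knt kanamycin-resistance gene, and plates were LB agar with or without 25 μg/mL kanamycin plus 100 μg/mL carbenicillin, 50 μM IPTG and 0.2% rhamnose. Pooled colonies were amplicon-sequenced on an Illumina HiSeq 2500, and fitness is the DiMSum error-weighted combination of wild-type-normalised replicate fold changes, kanamycin versus none.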

| Sequence | self-splicing fitness (ln) (30 °C) | self-splicing fitness (ln) (37 °C) |
| --- | --- | --- |
| ACAAAGCAAUAUUACGGGAG | -1.72 ± 0.1 | -1.08 ± 0.12 |
| ACAAAGCAAUAUUACGGUGA | -1.28 ± 0.069 | -0.535 ± 0.07 |
| ACAAAGCAAUAUUACGUGAC | -3.4 ± 0.11 | -1.37 ± 0.092 |
| ACAAAGCAAUAUUACGUGCA | -0.78 ± 0.057 | -0.154 ± 0.074 |
| ACAAAGCAAUAUUACGUGCC | -1.14 ± 0.077 | -1.16 ± 0.097 |
| ACAAAGCAAUAUUACGUGCU | -0.981 ± 0.069 | -0.486 ± 0.082 |
| ACAAAGCAAUAUUACGUGGU | -2.87 ± 0.084 | -2.99 ± 0.12 |
| ACAAAGCAAUAUUACGUUCG | -1.28 ± 0.049 | -0.0172 ± 0.067 |
| ACAAAGCAAUAUUACGUUGU | -3.68 ± 0.14 | -2.18 ± 0.15 |
| ACACAGCAAUAUUACGAAGU | -3.43 ± 0.14 | -2.21 ± 0.15 |
| ACACAGCAAUAUUACGACGA | -0.721 ± 0.074 | -0.406 ± 0.081 |
| ACACAGCAAUAUUACGACGU | -0.452 ± 0.048 | 0.722 ± 0.073 |
| ACACAGCAAUAUUACGAGAG | -3.65 ± 0.14 | -2.37 ± 0.12 |
| ACACAGCAAUAUUACGAGCC | -1.97 ± 0.17 | -0.179 ± 0.19 |
| ACACAGCAAUAUUACGAGUA | -2.69 ± 0.12 | -0.889 ± 0.081 |
| ACACAGCAAUAUUACGAUUC | -1.96 ± 0.049 | -1.32 ± 0.072 |
| ACACAGCAAUAUUACGCAAC | -5.33 ± 0.36 | -1.88 ± 0.17 |
| ACACAGCAAUAUUACGCCUG | -0.898 ± 0.07 | -0.245 ± 0.076 |
| ACACAGCAAUAUUACGCUGA | -2.42 ± 0.096 | -1.47 ± 0.083 |
| ACACAGCAAUAUUACGCUUC |  | -3.08 ± 0.23 |
| ACACAGCAAUAUUACGCUUG | -1.24 ± 0.063 | -0.733 ± 0.076 |
| ACACAGCAAUAUUACGGAGU | -2.39 ± 0.087 | -2.01 ± 0.11 |
| ACACAGCAAUAUUACGGAUC | -2.94 ± 0.12 | -2.1 ± 0.15 |
| ACACAGCAAUAUUACGGCUC | -0.896 ± 0.067 | -0.461 ± 0.088 |
| ACACAGCAAUAUUACGGGAA | -2.99 ± 0.22 | -1.79 ± 0.14 |
| ACACAGCAAUAUUACGGGAU | -1.91 ± 0.053 | -0.774 ± 0.06 |

| Sequence | self-splicing fitness (ln) (30 °C) | self-splicing fitness (ln) (37 °C) |
| --- | --- | --- |
| ACACAGCAAUAUUACGGUAG | -4 ± 0.17 | -3.1 ± 0.15 |
| ACACAGCAAUAUUACGGUCG | -1.09 ± 0.051 | -0.473 ± 0.076 |
| ACACAGCAAUAUUACGUACC | -1.43 ± 0.11 | -1.12 ± 0.15 |
| ACACAGCAAUAUUACGUAUA | -3.41 ± 0.13 | -2.5 ± 0.12 |
| ACACAGCAAUAUUACGUCAA | -2.25 ± 0.19 | -1.99 ± 0.14 |
| ACACAGCAAUAUUACGUCGA | -1.22 ± 0.089 | -0.852 ± 0.092 |
| ACACAGCAAUAUUACGUGCU | -1.34 ± 0.055 | -0.611 ± 0.065 |
| ACACAGCAAUAUUACGUGGU | -4.33 ± 0.16 | -2.82 ± 0.11 |
| ACAGAGCAAUAUUACGAACU | -3.35 ± 0.21 | -1.61 ± 0.21 |
| ACAGAGCAAUAUUACGAAGG | -3.82 ± 0.23 | -3.32 ± 0.33 |
| ACAGAGCAAUAUUACGACGG | -2.78 ± 0.24 | -1.65 ± 0.27 |
| ACAGAGCAAUAUUACGACUA | -1.17 ± 0.48 | -1.17 ± 0.42 |
| ACAGAGCAAUAUUACGAGAA | -2.03 ± 0.45 |  |
| ACAGAGCAAUAUUACGAGCA | -3.84 ± 0.28 | -2.83 ± 0.31 |
| ACAGAGCAAUAUUACGAGGG | -2.31 ± 0.14 | -2.35 ± 0.24 |
| ACAGAGCAAUAUUACGAUGC | -2.74 ± 0.14 | -2.47 ± 0.29 |
| ACAGAGCAAUAUUACGCAUC | -4.07 ± 0.25 | -2.59 ± 0.23 |
| ACAGAGCAAUAUUACGCCGU | -2.59 ± 0.35 | -0.807 ± 0.33 |
| ACAGAGCAAUAUUACGCGUC |  | -2.07 ± 0.29 |
| ACAGAGCAAUAUUACGCUUC | -3.96 ± 0.24 | -2.16 ± 0.3 |
| ACAGAGCAAUAUUACGGAUG | -4.02 ± 0.31 | -3.37 ± 0.37 |
| ACAGAGCAAUAUUACGGCGA | -3.14 ± 0.31 | -1.17 ± 0.17 |
| ACAGAGCAAUAUUACGGCUA | -3.1 ± 0.23 | -1.41 ± 0.14 |
| ACAGAGCAAUAUUACGGGAG | -3.51 ± 0.28 | -1.62 ± 0.21 |
| ACAGAGCAAUAUUACGGGCA | -2.58 ± 0.19 | -0.773 ± 0.15 |
| ACAGAGCAAUAUUACGGGCU | -3.02 ± 0.22 | -2.58 ± 0.2 |

| Sequence | self-splicing fitness (ln) (30 °C) | self-splicing fitness (ln) (37 °C) |
| --- | --- | --- |
| ACAGAGCAAUAUUACGGUAU | -4.21 ± 0.36 | -3.75 ± 0.26 |
| ACAGAGCAAUAUUACGGUGG | -4.17 ± 0.23 | -3.01 ± 0.32 |
| ACAGAGCAAUAUUACGUAAU | -3.43 ± 0.4 | -2.5 ± 0.41 |
| ACAGAGCAAUAUUACGUAUU | -3.66 ± 0.23 | -2.84 ± 0.27 |
| ACAUAGCAAUAUUACGAAUG | -1.65 ± 0.1 | -1.22 ± 0.13 |
| ACAUAGCAAUAUUACGAUAG | -3.38 ± 0.19 | -1.36 ± 0.17 |
| ACAUAGCAAUAUUACGCACC | -1.83 ± 0.18 | 0.273 ± 0.18 |
| ACAUAGCAAUAUUACGCAUA | -3.01 ± 0.17 | -1.85 ± 0.12 |
| ACAUAGCAAUAUUACGCAUG | -2.85 ± 0.13 | -1.15 ± 0.12 |
| ACAUAGCAAUAUUACGCCCG | -0.76 ± 0.16 | -0.298 ± 0.15 |
| ACAUAGCAAUAUUACGCGCU | -1.19 ± 0.095 | -0.534 ± 0.098 |
| ACAUAGCAAUAUUACGCGGC | -3.77 ± 0.18 | -2.8 ± 0.3 |
| ACAUAGCAAUAUUACGCGUU | -3.55 ± 0.24 | -2.39 ± 0.15 |
| ACAUAGCAAUAUUACGCUCA | -0.539 ± 0.11 | -0.358 ± 0.12 |
| ACAUAGCAAUAUUACGCUUC | -3 ± 0.29 | -1.82 ± 0.28 |
| ACAUAGCAAUAUUACGGAAA | -2.14 ± 0.26 | -2.11 ± 0.2 |
| ACAUAGCAAUAUUACGGACA | -1.57 ± 0.16 | -0.382 ± 0.14 |
| ACAUAGCAAUAUUACGGAGA | -3.28 ± 0.25 | -2.47 ± 0.24 |
| ACAUAGCAAUAUUACGGGCU | -1.4 ± 0.13 | -0.715 ± 0.16 |
| ACAUAGCAAUAUUACGGUCU | -1.46 ± 0.071 | -0.428 ± 0.089 |
| ACAUAGCAAUAUUACGGUUC | -2.93 ± 0.17 | -2.51 ± 0.24 |
| ACAUAGCAAUAUUACGUAUU | -4.38 ± 0.21 | -2.78 ± 0.23 |
| ACAUAGCAAUAUUACGUUCA | -1.39 ± 0.095 | -0.808 ± 0.13 |
| ACAUAGCAAUAUUACGUUGG | -3.23 ± 0.2 | -2.29 ± 0.14 |
| ACCAAGCAAUAUUACGAGAC | -3.68 ± 0.18 | -2.86 ± 0.21 |
